Assay results as given in patent publication EP4711384A1 (WIO Bioscience Co., Ltd., dated 2026).

T1: human IL-18R1 and IL-18RAP on IL-18 Reporter HEK 293 Cells (human, UniProt Q13478 19-541; O95256 20-599)
T1 sequence (looked up) 1: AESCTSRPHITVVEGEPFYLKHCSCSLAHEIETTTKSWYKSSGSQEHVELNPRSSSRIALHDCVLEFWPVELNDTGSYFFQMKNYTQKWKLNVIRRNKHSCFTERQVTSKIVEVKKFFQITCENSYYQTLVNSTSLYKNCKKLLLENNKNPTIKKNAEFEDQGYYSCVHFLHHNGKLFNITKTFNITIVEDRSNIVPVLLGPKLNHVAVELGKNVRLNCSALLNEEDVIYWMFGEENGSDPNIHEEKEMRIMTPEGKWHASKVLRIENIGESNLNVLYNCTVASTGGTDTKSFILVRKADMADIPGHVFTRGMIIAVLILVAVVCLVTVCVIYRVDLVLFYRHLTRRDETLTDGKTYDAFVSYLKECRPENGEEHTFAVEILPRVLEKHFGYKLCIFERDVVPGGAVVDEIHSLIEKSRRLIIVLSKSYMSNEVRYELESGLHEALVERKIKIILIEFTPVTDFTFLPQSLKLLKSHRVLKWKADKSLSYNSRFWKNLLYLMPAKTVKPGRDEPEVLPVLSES
T1 sequence (looked up) 2: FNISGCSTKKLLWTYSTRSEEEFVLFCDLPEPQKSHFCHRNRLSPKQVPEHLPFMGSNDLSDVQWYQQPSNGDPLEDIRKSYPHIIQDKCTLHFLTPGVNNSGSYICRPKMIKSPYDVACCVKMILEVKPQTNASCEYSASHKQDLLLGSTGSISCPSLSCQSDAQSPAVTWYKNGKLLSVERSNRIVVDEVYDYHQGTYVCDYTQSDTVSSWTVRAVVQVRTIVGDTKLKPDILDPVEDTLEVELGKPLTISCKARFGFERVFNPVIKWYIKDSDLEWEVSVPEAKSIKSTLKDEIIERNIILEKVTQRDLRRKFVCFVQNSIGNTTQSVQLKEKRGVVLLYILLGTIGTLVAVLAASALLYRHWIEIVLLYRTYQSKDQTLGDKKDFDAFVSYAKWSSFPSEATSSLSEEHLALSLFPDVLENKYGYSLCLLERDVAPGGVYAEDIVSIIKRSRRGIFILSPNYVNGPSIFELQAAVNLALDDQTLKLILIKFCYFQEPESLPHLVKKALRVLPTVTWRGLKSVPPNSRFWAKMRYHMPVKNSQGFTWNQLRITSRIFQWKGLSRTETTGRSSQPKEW


Biological target: T1, human IL-18R1 and IL-18RAP on IL-18 …
Experiment: cell-based or functional assay

Row | Binder | EC50 [ng/mL] | Top530nm
1 | hzWio-02-01-Hm1 (bispecific antibody) EVQLVESGGGLVQPGGSLRLSCAASGHAYDNACMGWFRQAPGKEREGVASIHLRDRTYYADSVKGRFTISRDNSKNTLYLQMNSLRAEDTAVYYCASSNICNALNLQGNTYWGQGTLVTVSSGGGGSEVQLLESGGGLVQPGGSLRLSCAASGYTYGPYCMGWFRQAPGKEREGVAAVGGDARTWYGNSVKGRFTISRDNSKNTLYLQMNSLRAEDTAVYYCAADFDRTVCSDDIYDYTYRGQGTLVTVSSHHHHHH | 1.25 | 0.909
2 | hzWio-02-01-Hm4 (bispecific antibody) EVQLVESGGGLVQPGGSLRLSCAASGTAYHNACMGWFRQAPGKEREGVASIHLRDRTYYADSVKGRFTISRDNSKNTLYLQMNSLRAEDTAVYYCASSNICNALNLQGNTYWGQGTLVTVSSGGGGSEVQLLESGGGLVQPGGSLRLSCAASGYTYGPYCMGWFRQAPGKEREGVAAVGGDARTWYGNSVKGRFTISRDNSKNTLYLQMNSLRAEDTAVYYCAADFDRTVCSDDIYDYTYRGQGTLVTVSSHHHHHH | 0.941 | 1.08
3 | hzWio-02-01-Hm5 (bispecific antibody) EVQLVESGGGLVQPGGSLRLSCAASGTAYDHACMGWFRQAPGKEREGVASIHLRDRTYYADSVKGRFTISRDNSKNTLYLQMNSLRAEDTAVYYCASSNICNALNLQGNTYWGQGTLVTVSSGGGGSEVQLLESGGGLVQPGGSLRLSCAASGYTYGPYCMGWFRQAPGKEREGVAAVGGDARTWYGNSVKGRFTISRDNSKNTLYLQMNSLRAEDTAVYYCAADFDRTVCSDDIYDYTYRGQGTLVTVSSHHHHHH | 1.11 | 1.01
4 | hzWio-02-01-Hm3 (bispecific antibody) EVQLVESGGGLVQPGGSLRLSCAASGTAHDNACMGWFRQAPGKEREGVASIHLRDRTYYADSVKGRFTISRDNSKNTLYLQMNSLRAEDTAVYYCASSNICNALNLQGNTYWGQGTLVTVSSGGGGSEVQLLESGGGLVQPGGSLRLSCAASGYTYGPYCMGWFRQAPGKEREGVAAVGGDARTWYGNSVKGRFTISRDNSKNTLYLQMNSLRAEDTAVYYCAADFDRTVCSDDIYDYTYRGQGTLVTVSSHHHHHH | 1.14 | 1.08
5 | hzWio-02-01-Hm6 (bispecific antibody) EVQLVESGGGLVQPGGSLRLSCAASGTAYDNHCMGWFRQAPGKEREGVASIHLRDRTYYADSVKGRFTISRDNSKNTLYLQMNSLRAEDTAVYYCASSNICNALNLQGNTYWGQGTLVTVSSGGGGSEVQLLESGGGLVQPGGSLRLSCAASGYTYGPYCMGWFRQAPGKEREGVAAVGGDARTWYGNSVKGRFTISRDNSKNTLYLQMNSLRAEDTAVYYCAADFDRTVCSDDIYDYTYRGQGTLVTVSSHHHHHH | 1.08 | 0.894
6 | hzWio-02-01-Hm10 (bispecific antibody) EVQLVESGGGLVQPGGSLRLSCAASGTAYDNACMGWFRQAPGKEREGVASHHLRDRTYYADSVKGRFTISRDNSKNTLYLQMNSLRAEDTAVYYCASSNICNALNLQGNTYWGQGTLVTVSSGGGGSEVQLLESGGGLVQPGGSLRLSCAASGYTYGPYCMGWFRQAPGKEREGVAAVGGDARTWYGNSVKGRFTISRDNSKNTLYLQMNSLRAEDTAVYYCAADFDRTVCSDDIYDYTYRGQGTLVTVSSHHHHHH | 1.27 | 1.1
7 | hzWio-02-01-Hm2 (bispecific antibody) EVQLVESGGGLVQPGGSLRLSCAASGTHYDNACMGWFRQAPGKEREGVASIHLRDRTYYADSVKGRFTISRDNSKNTLYLQMNSLRAEDTAVYYCASSNICNALNLQGNTYWGQGTLVTVSSGGGGSEVQLLESGGGLVQPGGSLRLSCAASGYTYGPYCMGWFRQAPGKEREGVAAVGGDARTWYGNSVKGRFTISRDNSKNTLYLQMNSLRAEDTAVYYCAADFDRTVCSDDIYDYTYRGQGTLVTVSSHHHHHH | 2.27 | 1.1
8 | hzWio-02-01-Hm9 (bispecific antibody) EVQLVESGGGLVQPGGSLRLSCAASGTAYDNACMGWFRQAPGKEREGVAHIHLRDRTYYADSVKGRFTISRDNSKNTLYLQMNSLRAEDTAVYYCASSNICNALNLQGNTYWGQGTLVTVSSGGGGSEVQLLESGGGLVQPGGSLRLSCAASGYTYGPYCMGWFRQAPGKEREGVAAVGGDARTWYGNSVKGRFTISRDNSKNTLYLQMNSLRAEDTAVYYCAADFDRTVCSDDIYDYTYRGQGTLVTVSSHHHHHH | 2.14 | 0.9
9 | hzWio-02-01-Hm7 (bispecific antibody) EVQLVESGGGLVQPGGSLRLSCAASGTAYDNACHGWFRQAPGKEREGVASIHLRDRTYYADSVKGRFTISRDNSKNTLYLQMNSLRAEDTAVYYCASSNICNALNLQGNTYWGQGTLVTVSSGGGGSEVQLLESGGGLVQPGGSLRLSCAASGYTYGPYCMGWFRQAPGKEREGVAAVGGDARTWYGNSVKGRFTISRDNSKNTLYLQMNSLRAEDTAVYYCAADFDRTVCSDDIYDYTYRGQGTLVTVSSHHHHHH | 1.12 | 1.03
10 | hzWio-02-01-Hm8 (bispecific antibody) EVQLVESGGGLVQPGGSLRLSCAASGTAYDNACMHWFRQAPGKEREGVASIHLRDRTYYADSVKGRFTISRDNSKNTLYLQMNSLRAEDTAVYYCASSNICNALNLQGNTYWGQGTLVTVSSGGGGSEVQLLESGGGLVQPGGSLRLSCAASGYTYGPYCMGWFRQAPGKEREGVAAVGGDARTWYGNSVKGRFTISRDNSKNTLYLQMNSLRAEDTAVYYCAADFDRTVCSDDIYDYTYRGQGTLVTVSSHHHHHH | 1.01 | 1.51

The remaining lines, values ahead:

Row | EC50 [ng/mL] | Top530nm | Binder
11 | 0.68 | 1.17 | hzWio-02-01-Hm12 (bispecific antibody) EVQLVESGGGLVQPGGSLRLSCAASGTAYDNACMGWFRQAPGKEREGVASIHLHDRTYYADSVKGRFTISRDNSKNTLYLQMNSLRAEDTAVYYCASSNICNALNLQGNTYWGQGTLVTVSSGGGGSEVQLLESGGGLVQPGGSLRLSCAASGYTYGPYCMGWFRQAPGKEREGVAAVGGDARTWYGNSVKGRFTISRDNSKNTLYLQMNSLRAEDTAVYYCAADFDRTVCSDDIYDYTYRGQGTLVTVSSHHHHHH
12 | 1.42 | 1.02 | hzWio-02-01-Hm11 (bispecific antibody) EVQLVESGGGLVQPGGSLRLSCAASGTAYDNACMGWFRQAPGKEREGVASIHHRDRTYYADSVKGRFTISRDNSKNTLYLQMNSLRAEDTAVYYCASSNICNALNLQGNTYWGQGTLVTVSSGGGGSEVQLLESGGGLVQPGGSLRLSCAASGYTYGPYCMGWFRQAPGKEREGVAAVGGDARTWYGNSVKGRFTISRDNSKNTLYLQMNSLRAEDTAVYYCAADFDRTVCSDDIYDYTYRGQGTLVTVSSHHHHHH
13 | 1.26 | 1.25 | hzWio-02-01-Hm14 (bispecific antibody) EVQLVESGGGLVQPGGSLRLSCAASGTAYDNACMGWFRQAPGKEREGVASIHLRDHTYYADSVKGRFTISRDNSKNTLYLQMNSLRAEDTAVYYCASSNICNALNLQGNTYWGQGTLVTVSSGGGGSEVQLLESGGGLVQPGGSLRLSCAASGYTYGPYCMGWFRQAPGKEREGVAAVGGDARTWYGNSVKGRFTISRDNSKNTLYLQMNSLRAEDTAVYYCAADFDRTVCSDDIYDYTYRGQGTLVTVSSHHHHHH
14 | 1.12 | 1.22 | hzWio-02-01-Hm13 (bispecific antibody) EVQLVESGGGLVQPGGSLRLSCAASGTAYDNACMGWFRQAPGKEREGVASIHLRHRTYYADSVKGRFTISRDNSKNTLYLQMNSLRAEDTAVYYCASSNICNALNLQGNTYWGQGTLVTVSSGGGGSEVQLLESGGGLVQPGGSLRLSCAASGYTYGPYCMGWFRQAPGKEREGVAAVGGDARTWYGNSVKGRFTISRDNSKNTLYLQMNSLRAEDTAVYYCAADFDRTVCSDDIYDYTYRGQGTLVTVSSHHHHHH
